Measurements: the DeepSol protein solubility set

Assay: soluble on expression in E. coli; label from the status in PepcDB or PDB records

Row | Sequence | soluble on expression in E. coli
1 | RPLTGLVMTGGGARAAYQVGALSAIMAILDPKARPGYPNPFPIICGTSAGAVNAAALACRADRPHLAVRRMRRLWASLETGMVYRADAPGLIRTGVRWLGLLSLGWMYAGLTRKRPQSLLDSSPLADLLGRVMDFDRMRHNLARGKLSALAITASGYTSGEHLTFYQSDRPIDPWHRFLRRAVPSAIGIDHIMASSAIPFVFPARPVRVHGQVEWCGDGSMRQLAPISPAIHLGATRVLVIGTGFHDDTHPEKREEDPPYPSLAQVGGHALSSIFLDGLSMDVERLERTNFLLSRGGQEAEPEFALRRVDVLALTPSQSLDQLALEHLDDMPSEARTLFRV | not soluble
2 | MSSSIREEVHRHLGTVALMQPALHQQTHAPAPTEITHTLFRAYTRVPHDVGGEADVPIEYHEKEEEIWELNTFATCECLAWRGVWTAEERRRKQNCDVGQTVYLGMPYYGRWLLTAARILVDKQFVTLTELHNKIVEMRERVASGQGLGEYLPPKAK | soluble
3 | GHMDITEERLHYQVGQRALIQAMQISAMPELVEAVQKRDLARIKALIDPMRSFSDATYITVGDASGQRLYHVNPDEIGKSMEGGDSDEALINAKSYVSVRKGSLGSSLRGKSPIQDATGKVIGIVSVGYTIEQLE | soluble
4 | MSLNNYKIFISAGESSGDIHGANLMRSLLKKNPNITFYGLGKERMNEAGLHCLCDMKTKSLMWLHALTELSAFLRMKKDCVRFFQHETPCAVILIDYCGFNFQLARAAKKLKIPVIYYITPQLWAHGPWRIKKLRKLVDFLIVIYPFEKSFYETSGLPVTYVGHPLFDELDRERRINNHLSMEEKQVGEYIVSLLPGSRKQEIIRLLPLLLRAAKQIKQTIPSIKILVSCTSEQYFSLIRLIVEASHLPAEIIVGCVRKIIQSSDICLAGSGTVTLQIAYYHTPMLIVYKISPFAYFIARPFLTTPYIGLVNILANKMIVPETLMCSNNYSRLANQAIELLRNNQKRHLCIENLRSLMDDIGKPGASERAAEEIFRFLRQETEGHHHHHH | not soluble
5 | MDLERLAQRLEGLRGYLDIPQKETRLKELERRLEDPSLWNDPEAARKVSQEAARLRRTVDTFRSLESDLQGLLELMEELPAEEREALKPELEEAAKKLDELYHQTLLNFPHAEKNAILTIQPGAGGTEACDWAEMLLRMYTRFAERQGFQVEVVDLTPGPEAGIDYAQILVKGENAYGLLSPEAGVHRLVRPSPFDASGRRHTSFAGVEVIPEVDEEVEVVLKPEELRIDVMRASGPGAQGVNTTDSAVRVVHLPTGITVTCQTTRSQIKNKELALKILKARLYELERKKREEELKALRGEVRPIEWGSQIRSYVLDKNYVKDHRTGLMRHDPENVLDGDLMDLIWAGLEWKAGRRQGTEEVEAE | soluble
6 | GAMATSESPDAYTESFGAHTIVKPAGPPRVGQPSWNPQRASSMPVNRYRPFAEEVEPIRLRNRTWPDRVIDRAPLWCAVDLRDGNQALIDPMSPARKRRMFDLLVRMGYKEIEVGFPSASQTDFDFVREIIEQGAIPDDVTIQVLTQCRPELIERTFQACSGAPRAIVHFYNSTSILQRRVVFRANRAEVQAIATDGARKCVEQAAKYPGTQWRFEYSPESYTGTELEYAKQVCDAVGEVIAPTPERPIIFNLPATVEMTTPNVYADSIEWMSRNLANRESVILSLHPHNDRGTAVAAAELGFAAGADRIEGCLFGNGERTGNVCLVTLGLNLFSRGVDPQIDFSNIDEIRRTVEYCNQLPVHERHPYGGDLVYTAFSGSHQDAINKGLDAMKLDADAADCDVDDMLWQVPYLPIDPRDVGRTYEAVIRVNSQSGKGGVAYIMKTDHGLSLPRRLQIEFSQVIQKIAEGTAGEGGEVSPKEMWDAFAEEYLAPVRPLERIRQHVDAADDDGGTTSITATVKINGVETEISGSGNGPLAAFVHALADVGFDVAVLDYYEHAMSAGDDAQAAAYVEASVTIASPAQPGEAGRHASDPVTIASPAQPGEAGRHASDPVTSKTVWGVGIAPSITTASLRAVVSAVNRAAR | soluble
7 | MTLPRFDQIRPKIEQHIREVKDFPKKGINFRDIMPLFTNPQLVNELCVVIADHVRHTVGHVDSVAGLEARGFLFGPQVAIQLGVPFVPIRKKGKLPGATIEASYVKEYGEDRVEIQEGAIKNGDIVFLIDDLLATGGTLRAATDLVVKAGGKVGEAFVLIELAPLNGRSKLPDVNLTTLISYDSA | not soluble
8 | MQTSPEREAVIIRSGNSKILNTRSLMSDSRPEVLTEEDVLRLFPVLGGERRLTRRLLKALKITDINAVHARHINLRGAEFAHAALTDPAINVCYRLHGAEHLEEMRKGGAFTTVSNHPFGSLDGIMLIDIIGSVRPDYSVLVNGFLSMISCLRDSFIPVAPLKGMAGGLDSKHNVSGVKEVLNRLQNGQPVGFFPAGGISVYKGNRNRVMDSEWQASCAKMILVSQVPVYPIFFSGRNSWYFHFLGWLSWAIRTPRIPAELFNKRGHIFDVYIGDPIPPETIARFEKNPRELALFLYDRTYRLAPGHKKNK | not soluble
9 | MGSDKIHHHHHHVNVEVCLFLIGHGAPGSEAGSTELSRFEAASQDIEGLRRFAIHVPAQADDCDPLSKTDASTCPRCVLQWYFDDLELLERTLQPGRAIHDLVDGSSNNGLTFTHQVMAVRTFATPNPSGPGTRAERCTYLVSYEGEAQDFNAWLTHYLLHHPPLMAQLPGIRELEIYTRLDYRSGLRIRRATAMQRNKVVFDDPAALAAALASPVRASMKQDFNAFPPYSGATLHFPMRSIYGNLKPK | not soluble
10 | MGSDKIHHHHHHMGMQARYDGVAVCAPITVPYVRFSPESAHWWTGAALRALGQKTGLNAGDIDGFCFASFSSAPDTVVGMVQHLGLSPRWMDHIPTGGASGIMALRRAARAVQCGDAEVVACVAADTNQIDSYRQTLAGFSRFSQDATYPYGFGGPNATFALITDNFMRQFGTTRETFGKLCVAQRENALSNPLALMKKPLTIEHYMNARPISDPVHLFDCVMPCAGAEAFLVTTPDKAEQLGLSTARILSTIERHNAFADDTVQFRGGWERDQEALWDRAGCGPGDVQCVQVYDDYPVIVAMQLADLGFCSKPGLNDFIAANEFTISGSLPLNTNGGQLSAGQAGAAGGFQNVTEGLRQILQCPLGEQVSDAHRALVSGFGLVNYDRGTCTGAAVLQREALR | not soluble
11 | APMKLYGAVMSWNLTRCATALEEAGSDYEIVPINFATAEHKSPEHLVRNPFGQVPALQDGDLYLFESRAICKYAARKNKPELLREGNLEEAAMVDVWIEVEANQYTAALNPILFQVLISPMLGGTTDQKVVDENLEKLKKVLEVYEARLTKCKYLAGDFLSLADLNHVSVTLCLFATPYASVLDAYPHVKAWWSGLMERPSVQKVAALMKPSA | soluble
12 | MGSDKIHHHHHHMKVVFLICNPAAGGGRAGKIWNRVEDLLKKHGIDHKFAFTERPGHAMEISKKAFKEGYRRIAAFGGDGTVNEMVNGIFLNGYDLREVVFGWIPFGSGKDWARTIGVPLEIEEAIKMLKDGKEFVQDLGVGEYEKASGEIEKRAFVNVAGLFFDGFVTYRTNLLKRKNRVSYFSRIFSSIIEYDPPTARIQIDEKVWEKRVFSMNVGICKYNGGGMNQLPHAVPDDGLLAVTVINDIGKLRILANLHRVFNGKLLEHPGVEGYQAKKVVVEFQRDEPVEFDGESFWAKKIFFSIIPGVIRVLVKK | not soluble
13 | MSLQQALINFYYQFHTKQHYFLCHDILEDAWKAENNYSKQDAVVSLILFATACYHYRRNNLKGAYKSFNKSKEIIQNAKDRDALYLNLNDYQLLIEQQIAKLNAAKPFSSVILPITPVFERIIKANYPDYDYNQETATDPFIVDHHMRRDRSEVIAAKEEAIQLRKHRRNEGHHHHHH | soluble
14 | EHVEMLSAAGATVVAFDPLSEQLPQCDGLIIPGGFPEEHCDVLEQRADLKQQVCDVIAQGIPVHAECAGLLWLLSTLDGRPMLDVIPTHGAMGRRLTLGYRDAVVVHDSVIYRAGERVTGHEFHHTAIADSVVPGWDSAWGWRAWDGSPKVEGFVSGNVHASYLHVHPAAVPAAVRRFVEACAR | not soluble
15 | MDPLSWLYARQGRFAPGLERIRAFLARLGHPEEAYPVALVGGTNGKGTTARALAAILEEAGFRVGLYTSPHLVDFRERIQVQGRPIPEEKLLALLAELRPHAERLEASFFEVATALALLHFAREGVEFAVLEVGLGGRLDATNATEPVLSVVTNVGHDHLEVLGPTLKDVAREKAGIFRGGVPALTAARGEGLGVLRAEALGRKNPPWVLGEDFHAEGVEALPQGLAFTLRLERTGEALRLTARLLGPHQAENLALAALSGRLLGAGWEAVKRGVARAENPGRLQRLLWRGRELLLDGAHNPEGALALREALRFHGLLPAAFVLGFSRDKDHAAMAEALRGLGPVVLTRYASPRSEDPRALLPLFPGAKVVEDPLEALEEAFSREGRVVVAGSLYLVGEVLRRLEGLPAEERWQ | soluble
16 | MLESVHQASAYTADVQPADVVIVGAGAAGLAAAHHLTRAGLTTAVLEAAPNVGGRMSTEKVDGFRLDRMGQLLSTAYPELRSTPGLDALPLREFSPGVLVHSDGHLHRVGEPGTPRSARGALTAARALASAPRQQRTPRAPRTQGASRPGLLGSPVGQSRLAGALARLAATPPDRLLSRPELPAARALSALGLPPRTIDGFLRPLLAALLCDPALETSSRCADLALRAFVTGRLCVPEGGADVLPELLAATLPPGTVHTGVRVTAVSTTSVTTKDHGELRCRAVLLATGARAAARLLPGLRVPGFHPVTVLHHTTDEPPLGDPALVLDAERGGPVAHTAVISRVDPSRAPAGRALVSSTVLGTPPPPDRLEAAVRAQLARLYRTSTARWELLAIHHDSEAVPAMPPPHDPRRPVRLLAGLYICGDHRDTSTVQGALRSGRRAAHALLTDVGAGQTSLEEPLETAALEHHHHHH | not soluble
17 | GAMAPSTIWHCFLKGTRLCFHKESNKEWQDVEDFARAASCDNEEEIQMGTHKGYGSDGLKLLSHEESVSFGESVLKLTFDPGTVEDGLLTVECKLDHPFYVKNKGWSSFYPSLTVVQHGIPCCEIHIGDVCLPPGHPDAINF | soluble
18 | MTNIFTPIEEALEAYKNGEFLIVMDDEDRENEGDLIMAAELITQEKMAFLVRYSSGYVCVPLSEERANQLELPPMLANRSDRHGTAYTITCDFAEGTTTGISAHDRALTTRSLANPNSKPQDFIKPGHILPLRAVPGLLKKRRGHTEAAVQLSTLAGLQPAGVICELVRDEDGLMMRLDDCIQFGKKHGIKIININQLVEYISK | soluble
19 | MKQGTMKILFFVLKTKLLKNGEAPILMRITINGQYEETRIQRSVPLKLWNAAKGCSKGKDRASNELNSYLSELATRALEKYKELILEQAISTPSLILKRVFGKDTEMRTLLGTIRQEIKEMEKVVNIDYAPVTINRYKNVLKKLENSIPTFYDKEDITFHELTPEFIKAFDLHLKTEVGLCRNTIVRYMKCFKKITNMALAKGWMKKDAFYGYKMEQDETDPVFLTYDELQTVMNKEFTIPRLVLVRDIFIFACFTGLAFADVSTLKKEDLVQDNNGDWWIRKGRIKLMHRHKASSICNIPLLPVPLAILKKYENNPVCIKKGCCLPVPCNQKMNSYLKEIADFCGIKKNITTHAGRHTFGTTITLANNVPLQDVSVMLGHASTRMTQHYARVMNASLKKSMLNVKKRLTQ | not soluble
20 | MLKKRELQDCHALYELMVHPDVFPFVRQKASSYEEFLFMTKQLMEAEERGELISRTILDEWGNPIGTISLFDIQDGAGFLGTWLGKPYHGLGYNRRAKEAFFHELFYELSIETVFLRIRKVNVRSIKAAEKLPYVTPANETRRALLEQIGADVYNLYEITKDNYTLYTMRHPSFAHNEEQRKEA | not soluble
21 | MIENHLYSLVTVVKYKLLPCLLAIFLTGCDRTEVTLSFTPEMASFSNEFDFDPLRGPVKDFTQTLMDEQGEVTKRVSGTLSEEGCFDSLELLDLENNTVVALVLDANYYRDAETLEKRVRLQGKCQLAELPSAGVSWETDDNGFVIKASSKQMQMEYRYDDQGYPLGKTTKSNDKTLSVSATPSTDPIKKLDYTAVTLLNNQRVGNVKQSCEYDSHANPVDCQLIIVDEGVKPAVERVYTIKNTIDYY | not soluble
